Consider two molecules from paper PMC9943875, “Agonist-controlled competition of RAR and VDR nuclear receptors for heterodimerization with RXR is manifested in their DNA binding” (The Journal of Biological Chemistry, 2023).

In test [1] the target is TagBFP-RXR (retinoid X receptor alpha tagged with TagBFP) (UniProt P19793).
The target of test [2] is T1, mCherry-RXR (retinoid X receptor alpha, N-terminally tagged with mCherry) (UniProt P19793 1-462).
T1 sequence (looked up): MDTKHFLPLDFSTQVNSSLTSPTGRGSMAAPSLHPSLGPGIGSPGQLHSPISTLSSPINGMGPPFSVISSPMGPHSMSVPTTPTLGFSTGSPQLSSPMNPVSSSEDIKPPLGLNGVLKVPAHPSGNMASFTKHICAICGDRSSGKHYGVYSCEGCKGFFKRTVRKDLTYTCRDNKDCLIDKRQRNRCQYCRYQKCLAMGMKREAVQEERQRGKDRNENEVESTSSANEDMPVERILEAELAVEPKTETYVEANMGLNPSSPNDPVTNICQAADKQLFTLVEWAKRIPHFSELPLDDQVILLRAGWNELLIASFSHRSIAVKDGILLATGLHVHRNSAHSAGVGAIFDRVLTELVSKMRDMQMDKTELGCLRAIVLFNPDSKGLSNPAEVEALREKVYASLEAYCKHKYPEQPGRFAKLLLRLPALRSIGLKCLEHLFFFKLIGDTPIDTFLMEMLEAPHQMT
Nature of the test: cell-based or functional assay.

Test [3] concerns the target mCherry-RXR (retinoid X receptor alpha, N-terminally tagged with mCherry) (UniProt P19793).

B1: EGFP-VDR (vitamin D receptor, N-terminally tagged with EGFP) (receptor, UniProt P11473 1-427, looked up)
chain: MEAMAASTSLPDPGDFDRNVPRICGVCGDRATGFHFNAMTCEGCKGFFRRSMKRKALFTCPFNGDCRITKDNRRHCQACRLKRCVDIGMMKEFILTDEEVQRKREMILKRKEEEALKDSLRPKLSEEQQRIIAILLDAHHKTYDPTYSDFCQFRPPVRVNDGGGSHPSRPNSRHTPSFSGDSSSSCSDHCITSSDMMDSSSFSNLDLSEEDSDDPSVTLELSQLSMLPHLADLVSYSIQKVIGFAKMIPGFRDLTSEDQIVLLKSSAIEVIMLRSNESFTMDDMSWTCGNQDYKYRVSDVTKAGHSLELIEPLIKFQVGLKKLNLHEEEHVLLMAICIVSPDRPGVQDAALIEAIQDRLSNTLQTYIRCRHPPPGSHLLYAKMIQKLADLRSLNEEHSKQYRCLSFQPECSMKLTPLVLEVFGNEIS
For B1, the slow fraction ρ2 of EGFP-RAR by FCS in triple-transfected cells (EGFP-RAR, mCherry-VDR, TagBFP-RXR), no ligand, against ρ2 ∼ 0.38 in cells with RAR and RXR only in test [1] was 0.32. The “slow (DNA-bound) fraction ρ2 of EGFP-VDR by FCS in live HEK293 cells, mCherry-RXR coexpressed and 100 nM calcitriol added together” value in test [2] was determined as 2 fold.

B2: EGFP-RAR (retinoic acid receptor alpha, N-terminally tagged with EGFP) (receptor)
chain: MASNSSSCPTPGGGHLNGYPVPPYAFFFPPMLGGLSPPGALTTLQHQLPVSGYSTPSPATIETQSSSSEEIVPSPPSPPPLPRIYKPCFVCQDKSSGYHYGVSACEGCKGFFRRSIQKNMVYTCHRDKNCIINKVTRNRCQYCRLQKCFEVGMSKESVRNDRNKKKKEVPKPECSESYTLTPEVGELIEKVRKAHQETFPALCQLGKYTTNNSSEQRVSLDIDLWDKFSELSTKCIIKTVEFAKQLPGFTTLTIADQITLLKAACLDILILRICTRYTPEQDTMTFSDGLTLNRTQMHNAGFGPLTDLVFAFANQLLPLEMDDAETGLLSAICLICGDRQDLEQPDRVDMLQEPLLEALKVYVRKRRPSRPHMFPKMLMKITDLRSISAKGAERVITLKMEIPGSMPPLIQEMLENSEGLDTLSGQPGGGGRDGGGLAPPPGSCSPSLSPSSNRSSPATHSP
For the molecule B2, the slow (DNA-bound) fraction ρ2 of EGFP-RAR by FCS in live HEK293 cells cotransfected with mCherry-RXR, no ligand (∼22% for EGFP-RAR alone) in test [3] came out at 0.38.
